B1: HisR (FN1732, predicted DapF) from F. nucleatum ATCC 25586 (Fusobacterium nucleatum subsp. nucleatum ATCC 25586) (protein)
chain: MDRKVQVLDFIKINPAGNITILIDNFDIYDKNIPKLSEEIMKETNLYAEQVGFIKDSHLQMMGGEFCGNASRAFASLLAFRDKDFSKQKNYNITCSGESKVLDVDVRNDGAKNKFLAKIKMPKFLSLEEINVDEYKLGLVRFSGINHFIFNIKENKETSFENIIDLVKKYLSNEEYSAFGIMFFDSDNLSMKPYVYVKEVGSGVYENSCASGTTALGYYLKKCKNLDRAKIVQPNGWLEYIIENDEMYIDGPVEIIAEGKIYIGK
notes: C-terminal hexahistidine tag, codon-optimized gene in pET-24b(+), expressed in E. coli BL21(DE3), Ni-NTA purified; homodimer
B2: HisR from F. nucleatum ATCC 23726 (Fusobacterium nucleatum subsp. nucleatum ATCC 23726) (protein)
chain: MDGKVQVLDFIKINPAGNITILIDNFDIYDKNIPKLSEEIMKETNLYAEQVGFIKEKHLQMMGGEFCGNASRSFASLLAFRDKDFSEQKNYSITCSGESEVLDVDVRTDGAKNKFLAKIKMPKFISLEEISIDEYKLGLVRFSGISHFIFNIKENKETSFENIIDLVKKYLSNEDYSAFGIMFFDKDNLSMKPYVYVKELESGIYENSCASGTTALGYYLKKYKNLDRAKVVQPNGWLEYIIENDEMYIDGPVEIVAEGKVYI

Key:
purified protein [1] = substrate: N[C@H](Cc1c[nH]cn1)C(=O)O; assay: purified protein; assay type: biochemical, Fusobacterium nucleatum; conditions: 20 mM NaH2PO4, 100 mM NaCl, pH 7.5, 25 °C
purified protein [2] = substrate: N[C@@H](Cc1c[nH]cn1)C(=O)O; assay: purified protein; assay type: biochemical, Fusobacterium nucleatum; conditions: 20 mM NaH2PO4, 100 mM NaCl, pH 7.5, 25 °C

Row | Protein | Km (purified protein [1]) | kcat (purified protein [1]) | kcat/Km (purified protein [1]) | Km (purified protein [2]) | kcat (purified protein [2]) | kcat/Km (purified protein [2])
1 | B1 | 24 mM | 250 s⁻¹ | 10000 M⁻¹ s⁻¹ | 4 mM | 74 s⁻¹ | 20000 M⁻¹ s⁻¹
2 | B2 | 18 mM | 64 s⁻¹ | 4000 M⁻¹ s⁻¹ | 5 mM | 42 s⁻¹ | 9000 M⁻¹ s⁻¹
